Here are results for one molecule from patent US20250092426, “CAS ENDONUCLEASES AND RELATED METHODS” (Flagship Pioneering Innovations VII, LLC, published 2025).

For the data set, the target named is T1, CasEnd-9 (synthetic construct).
T1 chain: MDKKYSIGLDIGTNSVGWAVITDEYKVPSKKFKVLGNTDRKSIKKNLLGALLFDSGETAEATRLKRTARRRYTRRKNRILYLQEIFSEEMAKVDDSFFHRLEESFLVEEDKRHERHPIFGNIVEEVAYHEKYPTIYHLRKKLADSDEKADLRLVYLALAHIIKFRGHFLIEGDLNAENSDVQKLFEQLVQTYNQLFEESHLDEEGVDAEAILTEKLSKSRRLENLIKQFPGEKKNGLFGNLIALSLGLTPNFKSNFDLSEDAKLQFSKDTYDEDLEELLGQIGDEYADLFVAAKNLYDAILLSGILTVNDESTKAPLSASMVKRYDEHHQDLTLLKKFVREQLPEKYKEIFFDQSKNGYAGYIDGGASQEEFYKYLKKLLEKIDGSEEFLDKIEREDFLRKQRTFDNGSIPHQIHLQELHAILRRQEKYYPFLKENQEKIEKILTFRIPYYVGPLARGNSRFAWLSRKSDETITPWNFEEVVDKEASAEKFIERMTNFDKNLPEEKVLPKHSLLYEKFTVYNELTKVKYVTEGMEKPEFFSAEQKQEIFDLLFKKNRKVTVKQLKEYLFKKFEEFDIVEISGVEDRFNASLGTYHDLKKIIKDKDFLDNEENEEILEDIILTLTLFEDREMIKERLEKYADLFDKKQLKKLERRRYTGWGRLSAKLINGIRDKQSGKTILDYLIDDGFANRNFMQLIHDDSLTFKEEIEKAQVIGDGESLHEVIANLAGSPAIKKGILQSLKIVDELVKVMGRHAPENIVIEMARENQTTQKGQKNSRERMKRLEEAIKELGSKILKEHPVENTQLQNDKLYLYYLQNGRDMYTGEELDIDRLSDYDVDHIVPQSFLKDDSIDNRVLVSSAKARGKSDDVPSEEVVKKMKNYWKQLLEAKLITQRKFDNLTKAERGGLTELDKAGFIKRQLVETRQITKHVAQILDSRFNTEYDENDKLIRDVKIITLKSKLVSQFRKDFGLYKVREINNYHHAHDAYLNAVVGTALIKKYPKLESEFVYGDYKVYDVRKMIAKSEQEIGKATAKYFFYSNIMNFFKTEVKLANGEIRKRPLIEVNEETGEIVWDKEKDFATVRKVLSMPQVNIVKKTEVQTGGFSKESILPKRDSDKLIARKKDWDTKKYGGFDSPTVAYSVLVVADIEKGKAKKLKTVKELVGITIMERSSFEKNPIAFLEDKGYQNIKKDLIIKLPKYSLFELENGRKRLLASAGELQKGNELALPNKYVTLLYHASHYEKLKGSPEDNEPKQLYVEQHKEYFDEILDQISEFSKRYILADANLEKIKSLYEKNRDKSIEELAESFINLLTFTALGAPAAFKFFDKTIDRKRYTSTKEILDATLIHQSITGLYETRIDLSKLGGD
The data set can be described thus: cell_activity; +++; HEK293T; PAM not stated. In short, it runs like this:
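BFP-to-GFP conversion via reverse transcriptase fusion with each Cas endonuclease plus template RNA: 200 ng of each plasmid nucleofected into 250,000 BFP-expressing HEK293T cells (program DS-150). Percent GFP+ cells by flow cytometry at day 4 measured editing.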

B1: BFP-to-GFP template RNA ; BFP reporter protospacer (ssRNA ; dsDNA)
RNA: GCCGAAGCACUGCACGCCGUGUUUUAGAGCUAGAAAUAGCAAGUUAAAAUAAGGCUAGUCCGUUAUCAACUUGAAAAAGUGGCACCGAGUCGGUGCACCCUGACGUACGGCGUGCAGUGCUU
DNA 1: GCCGAAGCACTGCACGCCGT
DNA 2: ACGGCGTGCAGTGCTTCGGC
B1: the activity is ≥ 100 % of reference.
